In patent US20240199730A1 (AstraZeneca / MedImmune, published 2024):

B1: cyno TSLP (ligand, cynomolgus)
chain: YDFTNCDFQKIEADYLRTISKDLITYMSGTKSTDFNNTVSCSNRPHCLTEIQSLTFNPTPRCASLAKEMFARKTKATLALWCPGYSETQINATQAMKKRRKRKVTTNKCLEQVSQLLGLWRRFIRTLLKKQ
notes: Cyno TSLP as used in solution in the KinExA assay; also called Cynomolgus TSLP
B2: Fab 1 (Fab, V domains shown)
VH: QMQLVESGGGVVQPGRSLRLSCAASGFTFRTYGMHWVRQAPGKGLEWVAVIWYDGSNKHYADSVKGRFTITRDNSKNTLNLQMNSLRAEDTAVYYCARAPQWELVHEAFDIWGQGTMVTVSS
VL: SYVLTQPPSVSVAPGQTARITCGGNNLGSKSVHWYQQKPGQAPVLVVYDDSDRPSWIPERFSGSNSGNTATLTISRGEAGDEADYYCQVWDSSSDHVVFGGGTKLTVLG
notes: The claims call it an IgG1 Fab; It was injected as monomerized Fab1 in the Biacore assay; also called anti-TSLP Fab

Columns and labels:
Fab 1 [1] = target: B2; assay: KinExA, cyno TSLP titrated into 40 pM fixed Fab 1 (open squares); free Fab 1 captured on hu TSLP-coated beads; the midpoint depends on the fixed Fab concentration
Description: (§1) The KinExA methodology has been reviewed (Darling and Brault, 2004).
(§2) The KinExA software was used to calculate the equilibrium dissociation constant (KD).

Fab 1 [2] = target: B2; assay: KinExA, cyno TSLP titrated into 1000 pM fixed Fab 1 (filled diamonds); free Fab 1 captured on hu TSLP-coated beads; the midpoint depends on the fixed Fab concentration
Description: as §1, §2

cyno TSLP = target: B1; assay: KinExA, solution phase; global 1:1 fit to two datasets
Description: as §1, §2

[3] = target: T1, N-terminally tagged biotinylated cyno TSLP (cynomolgus, UniProt A0A7N9CAT7 29-159, biotinylated (site not stated)); assay: SPR, Biacore 8K; biotinylated TSLP on streptavidin C1 chip, Fab1 injected; 1:1 Langmuir model
T1 construct: Captured on a streptavidin C1 chip in the Biacore assay; also called recombinant mammalian cell-expressed cyno TSLP; not shown: N-terminal tag
T1 sequence: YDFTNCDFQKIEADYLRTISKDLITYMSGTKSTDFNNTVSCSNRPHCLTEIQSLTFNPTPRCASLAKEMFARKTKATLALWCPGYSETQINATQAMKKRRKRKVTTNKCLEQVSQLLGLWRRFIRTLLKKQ

Binder: B1
- IC50 (read off the curve) (Fab 1 [1]): ~0.04 nM
- IC50 (read off the curve) (Fab 1 [2]): ~0.6 nM

Binder: B2
- Kd (cyno TSLP): 0.0136 nM
- Kd [3]: 0.0884 nM
